# Measurements reported in patent US10039841B2, “Gene therapy vector system and prodrug genes” (The Industry & Academic Cooperation in Chungnam National …, priority 2016, dated 2018).
# B1: CD7: yeast CD gene optimized by human codon (SEQ. ID. NO: 22) (nucleic acid)
# DNA: ATGGTAACTGGTGGCATGGCCTCAAAGTGGGATCAGAAAGGAATGGACATCGCTTACGAGGAGGCCGCACTGGGCTATAAGGAGGGCGGCGTCCCTATAGGCGGTTGCCTGATTAACAATAAAGACGGCTCAGTGCTGGGAAGGGGGCACAACATGAGATTTCAGAAAGGCAGCGCAACTCTGCACGGCGAAATCTCCACTCTGGAGAACTGCGGGCGGCTGGAGGGAAAGGTTTATAAAGATACTACCTTGTATACAACTCTGTCCCCCTGCGATATGTGCACCGGCGCCATCATAATGTACGGAATACCCAGGTGCGTGGTGGGAGAGAACGTGAATTTTAAGTCAAAAGGTGAGAAGTACCTGCAGACTCGCGGCCATGAGGTGGTTGTTGTTGACGATGAAAGGTGCAAGAAGATTATGAAGCAGTTCATTGATGAAAGACCCCAGGACTGGTTTGAGGATATCGGAGAGTAG
# modifications: CD7 gene
# B2: CD4: CD gene where 32 sites showing recombination were all mutated (SEQ. ID. NO: 19) (nucleic acid)
# DNA: ATGGTGACAGGGGGAATGGCAAGCAAGTGGGATCAGAAGGGTATGGACATTGCCTATGAGGAGGCGGCCTTAGGTTACAAAGAGGGTGGTGTTCCTATTGGCGGATGTCTTATCAATAACAAAGACGGAAGTGTTCTCGGTCGTGGTCACAACATGAGATTTCAAAAGGGATCCGCCACACTACATGGTGAGATCTCCACTTTGGAGAACTGCGGCAGGCTGGAAGGCAAGGTGTACAAAGATACCACTCTGTACACCACCCTGTCTCCATGCGACATGTGTACAGGTGCCATCATCATGTATGGTATTCCACGCTGTGTTGTCGGTGAGAACGTTAATTTCAAAAGTAAGGGCGAGAAATACTTGCAAACCAGGGGCCACGAGGTGGTGGTTGTTGACGATGAGAGGTGTAAAAAGATCATGAAACAATTTATCGATGAAAGACCTCAGGACTGGTTCGAGGACATCGGCGAGTAA
# modifications: CD4 gene
# B3: CD8: yeast CD gene optimized by human codon (SEQ. ID. NO: 23) (nucleic acid)
# DNA: ATGGTTACTGGGGGAATGGCATCTAAGTGGGATCAGAAAGGTATGGACATCGCTTATGAAGAGGCTGCTCTCGGCTACAAAGAGGGTGGAGTGCCTATCGGAGGGTGCCTGATCAACAACAAGGACGGCAGTGTGCTGGGGAGGGGCCACAATATGAGGTTCCAAAAAGGCTCCGCCACTCTCCACGGGGAAATTAGTACCCTCGAGAATTGCGGACGATTGGAAGGGAAGGTGTACAAGGATACAACACTGTACACCACCCTGTCACCCTGTGATATGTGCACAGGCGCCATTATCATGTACGGAATCCCTAGATGTGTCGTGGGGGAGAATGTAAACTTCAAAAGTAAGGGGGAGAAATATCTCCAGACCCGGGGGCACGAAGTCGTCGTTGTGGACGATGAACGGTGTAAGAAGATCATGAAGCAGTTTATCGATGAGAGGCCCCAGGACTGGTTCGAAGACATCGGGGAATAA
# modifications: CD8 gene
# B4: yCD: yeast cytosine deaminase gene (SEQ. ID. NO: 16) (nucleic acid, listed as Saccharomyces cerevisiae)
# DNA: ATGGTGACAGGGGGAATGGCAAGCAAGTGGGATCAGAAGGGTATGGACATTGCCTATGAGGAGGCGGCCTTAGGTTACAAAGAGGGTGGTGTTCCTATTGGCGGATGTCTTATCAATAACAAAGACGGAAGTGTTCTCGGTCGTGGTCACAACATGAGATTTCAAAAGGGATCCGCCACACTACATGGTGAGATCTCCACTTTGGAAAACTGTGGGAGATTAGAGGGCAAAGTGTACAAAGATACCACTTTGTATACGACGCTGTCTCCATGCGACATGTGTACAGGTGCCATCATCATGTATGGTATTCCACGCTGTGTTGTCGGTGAGAACGTTAATTTCAAAAGTAAGGGCGAGAAATATTTACAAACTAGAGGTCACGAGGTTGTTGTTGTTGACGATGAGA
# B5: CD6: yeast CD gene optimized by human codon (SEQ. ID. NO: 21) (nucleic acid)
# DNA: ATGGTTACTGGAGGGATGGCCAGTAAATGGGACCAGAAGGGTATGGATATTGCATACGAGGAGGCCGCTTTGGGATACAAGGAGGGGGGTGTCCCTATAGGCGGTTGCCTGATCAATAATAAAGACGGCTCTGTCTTGGGAAGAGGACACAATATGCGCTTTCAGAAGGGAAGCGCCACCCTGCATGGAGAGATCTCTACCCTCGAAAATTGCGGAAGGCTCGAAGGCAAAGTTTACAAAGATACCACCCTCTACACAACGCTGTCCCCCTGTGATATGTGCACCGGTGCCATTATCATGTATGGCATCCCACGCTGCGTTGTAGGAGAGAATGTAAACTTCAAATCCAAGGGAGAGAAGTATCTCCAGACCCGAGGGCACGAAGTTGTGGTGGTGGACGATGAAAGGTGTAAGAAGATCATGAAGCAGTTCATAGATGAGCGGCCTCAGGACTGGTTCGAGGATATTGGCGAATGA
# modifications: CD6 gene
# System: U-87MG cells
# Experiment: Investigation of drug sensitivity against GCV and 5-FC (cell death of serially infected cells)
# Assay type: cell-based
# Description: The drug sensitivity against ganciclovir (GCV) and 5-fluorocytosine (5-FC) of the virus spRRVe-P1-yCD/sRRVgp-P1-TK produced in Example <3-1> was investigated.
# Overall, 293T cells were co-transfected with spRRVe-P1-yCD/sRRVgp-P1-TK by using PLUS reagent (Invitrogen) and lipofectamine (Invitrogen). 2 days later, the supernatant was obtained. The U-87MG cells sub-cultured on the previous day in a 6-well plate at the density of 1.5×10^3 cells/well were added with 8 μl/ml of polybrene, followed by infection with the virus for 8 hours. 5 days after the infection (post-infection 5 d), the supernatant was obtained. The U-87MG cells sub-cultured on the previous day in a 6-well plate at the density of 1.5×10^3 cells/well were infected with the supernatant (p1). The infection was continued serially until p4 phase. The cells of each phase were treated with trypsin-EDTA to prepare single cells. The prepared single cells were distributed in a 12-well plate at the density of 1.5×10^3 cells/well. From the next day of the sub-culture, the cells were treated with […] of GCV and 1 mM 5-FC for 5 days or 8 days, followed by investigation of cell death.
# The drug sensitivity of the virus produced in Example <6-2> against GCV and 5-FC was investigated by the same manner as described in Example <3-5> except that the virus produced in Example <6-2> was co-transfected.
# (§1) The drug sensitivity of the virus produced in Example <7-2> against GCV and 5-FC was investigated by the same manner as described in Example <3-5> except that the virus produced in Example <7-2> was co-transfected to infect stepwise from p1 to p9 and cell death was observed after treating GCV and 5-FC for 9 or 12 days, respectively.
# as §1, with “<8-2>” for “<7-2>”, “p11” for “p9”, “5” for “9”, “7 days.” for “12 days, respectively.”
# as §1, with “<10-2>” for “<7-2>”, “p5” for “p9”, “6” for “9”, “8” for “12”
# as §1, with “Example <11-2>” for “Example <7-2>”, “for 8” for “for 9”, “days, respetively.” for “days, respectively.”
# [1] = Example 8-3, combined with sRRVgp-P2-TK, p1 to p11, treated 5 or 7 days
Molecule,drug sensitivity against 5-FC [1],also measured
B1,"excellent drug sensitivity, compared to yCD gene",
B2,,"drug sensitivity against 5-FC (Example 6-3, spRRVe-P1-CDs/sRRVgp-P1-TK, p1-p4): weak drug sensitivity"
B3,"excellent drug sensitivity, compared to yCD gene",
B4,,"drug sensitivity against 5-FC (Example 3-5, 1 mM 5-FC for 5 days or 8 days, post-infection 5 d to p4): low drug sensitivity"
B5,"excellent drug sensitivity, compared to yCD gene","drug sensitivity against GCV and 5-FC (Example 10-3, spRRVe-P2-CDs (CD6, CD10-CD16)/sRRVgp-P2-TK, p1 to p5, treated 6 or 8 days): most excellent drug sensitivity"
